T1: His-tagged wild-type Pnut (Drosophila melanogaster, UniProt P40797 1-539)
T1 construct: Septin Pnut (Peanut), Drosophila melanogaster, wild type; homolog of human SEPT7; also called His–Pnut; Pnut-WT; source: baculovirus expression system, expressed together with Sep1 and Sep2; assembled complex purified
T1 sequence (looked up): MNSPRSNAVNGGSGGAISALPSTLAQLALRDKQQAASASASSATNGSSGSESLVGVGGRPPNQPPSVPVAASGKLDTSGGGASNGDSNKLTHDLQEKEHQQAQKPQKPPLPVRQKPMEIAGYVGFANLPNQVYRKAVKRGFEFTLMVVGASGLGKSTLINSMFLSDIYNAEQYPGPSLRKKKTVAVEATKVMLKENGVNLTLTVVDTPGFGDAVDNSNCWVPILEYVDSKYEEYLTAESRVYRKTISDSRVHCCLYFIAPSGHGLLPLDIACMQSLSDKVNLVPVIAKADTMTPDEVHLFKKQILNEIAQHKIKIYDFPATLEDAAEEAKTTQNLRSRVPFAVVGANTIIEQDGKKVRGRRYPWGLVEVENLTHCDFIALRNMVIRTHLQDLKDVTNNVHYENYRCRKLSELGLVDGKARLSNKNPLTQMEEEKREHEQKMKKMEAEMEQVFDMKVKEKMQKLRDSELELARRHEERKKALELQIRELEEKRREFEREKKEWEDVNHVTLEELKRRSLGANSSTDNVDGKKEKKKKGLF

T2: His-tagged nonphosphorylatable Pnut-T509A/S517A (Drosophila melanogaster, UniProt P40797 1-539, T509A | S517A)
T2 construct: Septin Pnut (Peanut), Drosophila melanogaster, with T509A and S517A; source: baculovirus expression system, expressed together with Sep1 and Sep2; assembled complex purified
T2 sequence (looked up): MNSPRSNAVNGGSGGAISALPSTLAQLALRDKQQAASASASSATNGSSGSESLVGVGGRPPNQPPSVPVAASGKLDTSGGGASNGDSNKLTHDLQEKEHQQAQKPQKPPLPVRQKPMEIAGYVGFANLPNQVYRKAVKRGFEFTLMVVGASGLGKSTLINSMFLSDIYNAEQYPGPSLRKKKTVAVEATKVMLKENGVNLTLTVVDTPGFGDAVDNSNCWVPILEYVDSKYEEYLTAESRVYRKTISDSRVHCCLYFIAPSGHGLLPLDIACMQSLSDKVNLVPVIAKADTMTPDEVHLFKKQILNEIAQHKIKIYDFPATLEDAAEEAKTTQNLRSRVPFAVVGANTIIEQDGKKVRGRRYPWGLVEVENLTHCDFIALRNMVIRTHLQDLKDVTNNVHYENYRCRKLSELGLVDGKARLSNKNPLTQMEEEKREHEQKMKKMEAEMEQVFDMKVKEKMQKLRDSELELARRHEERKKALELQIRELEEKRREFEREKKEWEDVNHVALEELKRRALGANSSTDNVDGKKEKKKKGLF

T3: His-tagged phospho-mimetic Pnut-T509E/S517E (Drosophila melanogaster, UniProt P40797 1-539, T509E | S517E)
T3 construct: Septin Pnut (Peanut), Drosophila melanogaster, with T509E and S517E; also called T509E/S517E mutant; source: baculovirus expression system, expressed together with Sep1 and Sep2; assembled complex purified
T3 sequence (looked up): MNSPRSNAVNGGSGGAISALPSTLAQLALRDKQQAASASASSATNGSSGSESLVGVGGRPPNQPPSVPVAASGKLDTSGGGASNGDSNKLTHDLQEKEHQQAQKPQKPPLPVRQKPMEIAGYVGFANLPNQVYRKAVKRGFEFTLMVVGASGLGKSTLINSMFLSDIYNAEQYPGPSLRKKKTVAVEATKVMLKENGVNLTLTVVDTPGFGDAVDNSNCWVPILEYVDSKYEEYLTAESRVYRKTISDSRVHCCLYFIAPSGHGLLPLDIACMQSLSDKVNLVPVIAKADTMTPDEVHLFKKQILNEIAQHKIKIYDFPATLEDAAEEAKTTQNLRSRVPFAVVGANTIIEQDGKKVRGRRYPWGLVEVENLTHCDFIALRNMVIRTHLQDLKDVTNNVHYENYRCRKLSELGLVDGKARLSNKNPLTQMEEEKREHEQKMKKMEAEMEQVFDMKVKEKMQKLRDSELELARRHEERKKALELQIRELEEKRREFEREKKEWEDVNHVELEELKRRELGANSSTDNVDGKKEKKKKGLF


Key:
Details in all cases: both partners purified
[1] = target: T1, His-tagged wild-type Pnut; test: pull-down; 2 µg purified recombinant septin complex diluted in 200 µl pull-down buffer (25 mM HEPES pH 7.6, 2 mM MgCl2, 10 mM imidazole) with 50 mM KCl; His-Pnut held on HisPur Ni-NTA resin, 1 hr at 22°; eluted with 250 mM imidazole; silver-stained SDS-PAGE; Sep1 given as a percentage of the Pnut amount
[2] = target: T2, His-tagged nonphosphorylatable …; test: as above
[3] = target: T3, His-tagged phospho-mimetic …; test: as above
[4] = target: T1, His-tagged wild-type Pnut; test: pull-down; 2 µg purified recombinant septin complex diluted in 200 µl pull-down buffer (25 mM HEPES pH 7.6, 2 mM MgCl2, 10 mM imidazole) with 300 mM KCl; His-Pnut held on HisPur Ni-NTA resin, 1 hr at 22°; eluted with 250 mM imidazole; silver-stained SDS-PAGE; Sep1 given as a percentage of the Pnut amount
[5] = target: T2, His-tagged nonphosphorylatable …; test: as above
[6] = target: T3, His-tagged phospho-mimetic …; test: as above

| Binder | amount of Sep1 as a percentage of the Pnut amount [1] [%] | amount of Sep1 as a percentage of the Pnut amount [2] [%] | amount of Sep1 as a percentage of the Pnut amount [3] [%] | amount of Sep1 as a percentage of the Pnut amount [4] [%] | amount of Sep1 as a percentage of the Pnut amount [5] [%] | amount of Sep1 as a percentage of the Pnut amount [6] [%] | binding result [3] | binding result [4] | binding result [5] |
| --- | --- | --- | --- | --- | --- | --- | --- | --- | --- |
| Sep1 (recombinant) (natural protein, Drosophila melanogaster, UniProt P42207 1-361, looked up, Septin Sep1, Drosophila melanogaster; homolog of human SEPT2; source: baculovirus expression system, expressed together with His-tagged Pnut and Sep2; assembled complex purified) MADTKGFSSIETPGYVGFANLPNQVHRKSVKKGFEFTLMVVGESGLGKSTLVNSLFLTDLYPERIIPDAIEKQKQTVKLEASTVEIEERGVKLRLTVVDTPGFGDAIDNSNSFGAILEYIDEQYERFLRDESGLNRRNIVDNRIHCCFYFISPFGHGLKPLDVEFMKKLHSKVNIVPVIAKADCLTKKEILRLKCRIMQEIESHGIKIYPLPDCDSDEDEDYKEQVKQLKEAVPFAVCGANTLLEVKGKKVRGRLYPWGVVEVENPDHCDFIKLRTMLITHMQDLQEVTQEVHYENYRSDRLAKGIKGKENGVKAERDSSSQVVSNSVLGEKDRILQEKEAELRRMQEMLAQMQARMQAQQ | 34 | 17 | 1 | 62.3 | 62 | 31 |  |  |  |
| Sep2 (recombinant) (natural protein, Drosophila melanogaster, UniProt P54359 1-419, looked up, Septin Sep2, Drosophila melanogaster; homolog of human SEPT6; source: baculovirus expression system, expressed together with His-tagged Pnut and Sep1; assembled complex purified) MSVEVDFVDKKEVHLRTLKQSGHVGFDSLPDQLVNKSVQNGFVFNVMCIGETGLGKSTLMDTLFNTSFESTPSPHTLPSVKLKAHTYELQESNVRLKLTICDTVGYGDQINKDDSFKAVVDYIDAQFENYLQEELKIKRSLVTCHDSRIHICLYFICPTGHGLKSLDLVCMKKLDSKVNIIPVIAKADTISKVELQRFKAKIIQELNANGVHIYQFPTDDETVAETNTSMNSHIPFAVVGSTEFIKVGNKLIRARQYPWGTVQVENETHCDFVKLREMLIRTNMEDMREKTHTRHYELYRQKRLEQMGFSDVDSDNKPISFQQTFEAKRSNHLAELQSKEEEVRQMFVQRVKEKEAELKESEKDLHAKFEKLKRDHAEEKRKLEESRKALEEDYLDFQRRKQQLATAHHTLTLGKSKKK |  |  |  |  |  |  | binds | binds | binds |
